Drawing on the supplement of paper PMC10126150, this text covers switch fluorescence ratio for 78 sequences.

± gives the standard deviation of the averaged measurements.
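Further: ATP exposure 15 min at 22 °C before imaging.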

The data set deals with ATP. As to the kind of experiment: switch fluorescence ratio, 500 uM ATP over buffer (Cy3 cluster intensity, sum of 5 cycles each) (fold (ratio)); higher = stronger signal-on switching upon ATP binding; sequences stand for … in TCGTCGGCAGCGTCAGATGTGTATAAGAGACAGTTTTTTTTTTTTTTTTTTTTTTTTT…TC. To be noted: aptamer strand: ATP DNA aptamer (quencher-CACCTGGGGGAGTATTGCGGAGGAAGG + anchor), 100 nM annealed; ATP concentration: 500 uM. The essentials: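 Switching-strand clusters labelled with Cy3 on a modified Illumina MiSeq flow-cell were annealed to 100 nM quencher-labelled ATP aptamer, imaged in selection buffer, and re-imaged after 15 min with 500 uM ATP at 22 °C. This was done over five cycles with NaOH stripping and re-annealing in between. The fluorescence ratio is summed target-cycle over summed buffer-cycle Cy3 intensity per cluster, averaged per switch-domain sequence, excluding clusters outside 100-1000 RFU.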
Take GATCAACTGT: the switch fluorescence ratio was 1 ± 0.032.
With AGTAGGGGGC the figure was 1 ± 0.035; with ATAAGGATAG, 1 ± 0.011; with TTAAGAGGGG, 0.975 ± 0.042.
Take TTTGTACTGG: the switch fluorescence ratio came to 1.01 ± 0.041.
Next, TTTGGGTGGG: 0.985 ± 0.041; GTCGAGAGAA: 1.01 ± 0.011; ACCGGTGTAC: 1.77 ± 0.12.
AGGTAAGTAG: the switch fluorescence ratio was determined as 1.01 ± 0.031.
Next, CGTACGGGTG: 1 ± 0.014; AGGTCGGACA: 1.006 ± 0.0094.
Next, AGTGCGTTTC: 0.996 ± 0.031; TAAAATTATA: 1.02 ± 0.021; AGTTTTTGGG: 0.97 ± 0.037.
For TCGTAGCTAA, the switch fluorescence ratio was determined as 4.37 ± 0.23.
Next, TAGGTAGTGG: 1.01 ± 0.027; GTGAAGGAGC: 0.995 ± 0.017; TTTTACTTGG: 0.993 ± 0.015.
Take AGGAATTTAG: the switch fluorescence ratio is 1.02 ± 0.03.
For the sequence CCTACCCTCC, the switch fluorescence ratio was 3.05 ± 0.22.
With TGAAGTGTTT the figure was 1.01 ± 0.028; with GTTAACCGGA, 1.01 ± 0.012.
With TTTAGATACG, the switch fluorescence ratio was found to be 1.05 ± 0.014.
Next, GTAAGAAGTG: 0.941 ± 0.033.
In the case of AGGAATTCCG, the switch fluorescence ratio was 0.992 ± 0.054.
Turning to AGCAGGTGGC, the switch fluorescence ratio was 1.13 ± 0.045.
With TTCAGAAGCC the figure was 1.12 ± 0.061.
With TTGGATGTGT the figure was 0.9407 ± 0.001.
With TTTGGGTTTC the figure was 0.977 ± 0.017; with GGTTGGCATA, 0.984 ± 0.016; with TTTGCGTGCA, 0.975 ± 0.011.
In the case of GGTATTTACA, the switch fluorescence ratio worked out at 1.034 ± 0.0033.
For the sequence AGGCTTATTT, the switch fluorescence ratio amounted to 1 ± 0.023.
Next, CTCGGCCGAG: 0.982 ± 0.016; ATAATTAAGG: 0.99 ± 0.028; CATTATTTAG: 1.01 ± 0.033.
Next, GTTGCGAAGG: 0.983 ± 0.02; TGGGGAATCT: 1.02 ± 0.016; TGATGAATGG: 0.9899 ± 0.0092.
With GTTATTAATT the figure was 0.983 ± 0.0036.
As to TTTGGCACAC, the switch fluorescence ratio is 1.046 ± 0.0048.
Next, AACGGTACGG: 1.03 ± 0.045; AAATGGGTAC: 0.9935 ± 0.0099; AGAGTAGGGT: 1 ± 0.0043.
With GGTATGGGGG the figure was 1.02 ± 0.031; with GGGAGACGGT, 1.02 ± 0.068.
Consider TTACTTGGCC, for which the switch fluorescence ratio came to 0.9818 ± 0.0021.
With CTGTTTGAGA the figure was 1.02 ± 0.018; with TTCTAAAAAA, 1.01 ± 0.021; with TTTTTAGGGA, 0.99 ± 0.029.
With CCATTTAGTT the figure was 1.09 ± 0.12; with GAACATGATA, 1.02 ± 0.028.
Next, TTAAAGGGGA: 1.04 ± 0.049; ATTGTGGGGA: 0.985 ± 0.048.
As for CCAAGGGGAG, the switch fluorescence ratio stood at 0.988 ± 0.037.
Next, TGTGCGCGCT: 0.995 ± 0.036.
On to TAAGGGCTGA, for which the switch fluorescence ratio is 1.01 ± 0.011.
With GGGTCTGGGT the figure was 0.984 ± 0.026; with TCTTTGATTA, 1.01 ± 0.042.
Turning to TTGGTTCTGA, the switch fluorescence ratio came out at 1.021 ± 0.0036.
With TTGGGGTCCG the figure was 0.977 ± 0.053; with ATTTGTGTTT, 0.9931 ± 0.0027; with AGGGGACGAC, 1.02 ± 0.027.
With TGATAGCGGA, the switch fluorescence ratio was found to be 1.03 ± 0.035.
Next, ATAAACGGGG: 0.9917 ± 0.001; AGTAAAAGTT: 0.989 ± 0.052; ATAGTCAAAC: 1.027 ± 0.0025.
With AGGGGTATTA the figure was 1.002 ± 0.01; with CACTGTGAAT, 1.009 ± 0.0024; with TACGCAGAAT, 3.38 ± 3.2.
Next, TTTGATTGAG: 0.953 ± 0.012; GGGCATGTAG: 0.996 ± 0.058; AGACGCGGTG: 1.044 ± 0.0038.
Regarding TGTTTATGAG, the switch fluorescence ratio stood at 0.9849 ± 0.0034.
As for TTATAATGGT, the switch fluorescence ratio was 1.02 ± 0.062.
On to ATGTACGAAT, for which the switch fluorescence ratio came out at 1.004 ± 0.0025.
Next, TCCTAGGGGG: 1 ± 0.026; CCGGGGTACA: 1.17 ± 0.17.
